In assay [1] the target is T1, Sos-2xSpc-Vif fusion protein (negative control target protein, expressed from pADH-Sos-2xSpc-vif).
T1 construct: Heterologous control bait in cdc25-2 yeast; also called Sos-Vif; SOS-Vif
Put plainly: Sos recruitment system in cdc25-2 yeast, growth at 37 C on galactose (FIG. 2 row D: MARCH7+SOS-Vif).

The target in assay [2] is T1, Sos-2xSpc-Vif fusion protein (negative …). Put plainly: Sos recruitment system in cdc25-2 yeast, growth at 37 C on galactose (FIG. 2 row B: GBP2+Sos-Vif).

B1: membrane-associated Ring-finger 7 (MARCH7), prey fusion with myristoylation signal from the human hepatocyte cDNA library (other)
chain: MESKPSRIPRRISVQPSSSLSARMMSGSRGSSLNDTYHSRDSSFRLDSEYQSTSASASASPFQSAWYSESEITQGARSRSQNQQRDHDSKRPKLSCTNCTTSAGRNVGNGLNTLSDSSWRHSQVPRSSSMVLGSFGTDLMRERRDLERRTDSSISNLMDYSHRSGDFTTSSYVQDRVPSYSQGARPKENSMSTLQLNTSSTNHQLPSEHQTILSSRDSRNSLRSNFSSRESESSRSNTQPGFSYSSSRDEAPIISNSERVVSSQRPFQESSDNEGRRTTRRLLSRIASSMSSTFFSRRSSQDSLNTRSLNSENSYVSPRILTASQSRSNVPSASEVPDNRASEASQGFRFLRRRWGLSSLSHNHSSESDSENFNQESEGRNTGPWLSSSLRNRCTPLFSRRRREGRDESSRIPTSDTSSRSHIFRRESNEVVHLEAQNDPLGAAANRPQASAASSSATTGGSTSDSAQGGRNTGISGILPGSLFRFAVPPALGSNLTDNVMITVDIIPSGWNSADGKSDKTKSAPSRDPERLQKIKESLLLEDSEEEEGDLCRICQMAAASSSNLLIEPCKCTGSLQYVHQDCMKKWLQAKINSGSSLEAVTTCELCKEKLELNLEDFDIHELHRAHANEQAEYEFISSGLYLVVLLHLCEQSFSDMMGNTNEPSTRVRFINLARTLQAHMEDLETSEDDSEEDGDHNRTFDIA
modifications: myristoylation signal at the N-terminus (membrane localisation)
notes: also called axotrophin; membrane-associated RING-CH protein VII; not shown: myristoylation signal of the pmyr library vector
Consider B1, for which the binding result in assay [1] is “no binding”.

B2: Interferone-induced guanylate binding protein-2 (GBP2), prey fusion with myristoylation signal from the human hepatocyte cDNA library (other)
chain: MAPEINLPGPMSLIDNTKGQLVVNPEALKILSAITQPVVVVAIVGLYRTGKSYLMNKLAGKKNGFSLGSTVKSHTKGIWMWCVPHPKKPEHTLVLLDTEGLGDIEKGDNENDSWIFALAILLSSTFVYNSMGTINQQAMDQLHYVTELTDRIKANSSPGNNSVDDSADFVSFFPAFVWTLRDFTLELEVDGEPITADDYLELSLKLRKGTDKKSKSFNDPRLCIRKFFPKRKCFVFDWPAPKKYLAHLEQLKEEELNPDFIEQVAEFCSYILSHSNVKTLSGGIPVNGPRLESLVLTYVNAISSGDLPCMENAVLALAQIENSAAVEKAIAHYEQQMGQKVQLPTETLQELLDLHRDSEREAIEVFMKNSFKDVDQMFQRKLGAQLEARRDDFCKQNSKASSDCCMALLQDIFGPLEEDVKQGTFSKPGGYRLFTQKLQELKNKYYQVPRKGIQAKEVLKKYLESKEDVADALLQTDQSLSEKEKAIEVERIKAESAEAAKKMLEEIQKKNEEMMEQKEKSYQEHVKQLTEKMERDRAQLMAEQEKTLALKLQEQERLLKEGFENESKRLQKDIWDIQMRSKSLEPICNIL
modifications: myristoylation signal at the N-terminus (membrane localisation)
notes: also called NM-004120; not shown: myristoylation signal of the pmyr library vector
As to B2, the binding result in assay [2] is on record as “no binding”.

The record behind these values is patent publication US20120164659A1 (NEXIGEN, published 2012).
